# From the nanobody polyreactivity screen of Harvey et al. (2022)
# Assay: yeast display, Sf9 membrane polyspecificity reagent, FACS + sequencing; frameworks hold sequencing errors
# In short: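 After 36–48 hours of galactose induction, yeast (Saccharomyces cerevisiae BJ5465) displaying a synthetic nanobody library were stained at 4 °C for 1 hour with 10% biotinylated, detergent-solubilized Sf9 membrane reagent. Streptavidin microbeads enriched the stained cells before FACS sorting into low and high (top ~1%) gates on anti-HA and streptavidin fluorescence. Each clone's polyreactivity label reflects its gate of origin.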
row,Sequence,polyreactivity (PSR sort gate)
1,QVQLVESGGGLVQAGGSLRLSCAASGFIFDTYAMGWYRQAPGKERELVAAISRSGVRTYYADSVKGRFTISRDNAKNTVYLQMNSLTPEDTAVYYCNAALNRYHFGRAVPGDYWGQGTQVTVSS,high polyreactivity
2,QVQLVESGGGLVQAGGSLRLSCAASGFIFDTYAMGWYRQAPGKERELVARINYSGGSTRYADSVKGRFTISRDNAKNTVYLQMNSLKPEDTAVYYCAAREFSYGFYYWGQGTQVTVSS,high polyreactivity
3,QVQLVESGGGLVQAGGSLRLSCAASGFIFDVNAMGWYRQAPGKERELVATISKRGGTTYYADSVKGRFTISRDNAKNTVYLQMNSLKPEDTAVYYCAARHQTLRSYRYDYWGQGTQVTVSS,low polyreactivity
4,QVQLVESGGGLVQAGGSLRLSCAASGFIFDVNAMGWYRQAPGKETELVAAISKSGRRTYYADSVKGRFTISRDNAKNTVYLQMNSLKPEDTAVYYCAASLRASPSFGYWGQGTQVTVSS,high polyreactivity
5,QVQLVESGGGLVQAGGSLRLSCAASGFIFDVYAMGWYRQAPGKERELVAAISRSGGSTHYADSVKGRFTISRDNAKNTVYLQMNSLKPEDTAVYYCATGIRVGYAKYDYWGQGTQVTVSS,high polyreactivity
6,QVQLVESGGGLVQAGGSLRLSCAASGFIFDVYAMGWYRQAPGKERELVAAITSGDGTNYADSVKGRFTISRDNAKNTVYLQMNSLKPEDTAVYYCAADDGVTYRGIIFSYWGQGSQVTVSS,low polyreactivity
7,QVQLVESGGGLVQAGGSLRLSCAASGFIFDWNTMGWYRQAPGKERELVAAITESSGSTYYADSVKGRFTISRDNAKNTVYLQMNSLKPEDTAVYYCAADFSYVYYLYDYWGQGTQVTVSS,low polyreactivity
8,QVQLVESGGGLVQAGGSLRLSCAASGFIFDWYAMGWYRQAPGKERELVAAITRSGGNTYYADSVKGRFTISRDNAKNTVYLQMNSLKPEDTAVYYCNAVAAVYAYGHDYWGQGTQVTVSS,high polyreactivity
9,QVQLVESGGGLVQAGGSLRLSCAASGFIFDYNAMGWYRQAPGKERELVDAISGGGGSTYYADSVKGRFTISRDNAKNTVFLLMNSLKPEDTSVYDCAKRYRGGYWGQGSQVTVSS,high polyreactivity
10,QVQLVESGGGLVQAGGSLRLSCAASGFIFDYYAMGWYRPAPAKERELVAAISCRGGTTYYADSVKGRFTISRDNAKNTVYLQMNSLKPEDTAVYYCAAGRFYGFGYGYWGQGTQVTVSS,high polyreactivity
11,QVQLVESGGGLVQAGGSLRLSCAASGFIFDYYAMGWYRQAPGKERELVAAITRDGGGTYYADSVKGRFTISRDNAKNTVYFQMNSLKPEDTAVYYCAARTAYYHGSKYYYRGQGTQVTVSS,high polyreactivity
12,QVQLVESGGGLVQAGGSLRLSCAASGFIFDYYAMGWYRQAPGKERELVAAITSRGGSTYYADSVKGRFTISRDNAKNTVYLQMNSLKPEDTAVYYCAARRRSAEYNYWGQGTQVTVSS,high polyreactivity
13,QVQLVESGGGLVQAGGSLRLSCAASGFIFEPNAMGWYRQAPGKERELVAAISWSGGSTYYADSVKGRFTISRDNAKNTVYLQMNSLKPEDTAVYYCNAAVRGVGELDYWGQGTQVTVSS,high polyreactivity
14,QVQLVESGGGLVQAGGSLRLSCAASGFIFEPNAMGWYRQAPGKERELVAAISWSGGSTYYADSVKGRFTISRDNAKNTVYLQMNSLKPEDTAVYYCNADITYAYYEYGSWGQGTQVTVSS,high polyreactivity
15,QVQLVESGGGLVQAGGSLRLSCAASGFIFEPYAMGWYRQAPGKERELVAAISSGGSTYADSVKGRFTISRDNAKNTVYLQMNSLKPEDTAVYYCAADSYYSVWGFYYWGQGTQVTVSS,low polyreactivity
16,QVQLVESGGGLVQAGGSLRLSCAASGFIFERNTMGWYRQAPGKERELVATISRSAGNTYYADSVKGRFTISRDNANNTVYLQMNSLKPEDSAAYYCAKDHRTRGYDYWGQGTQVSVSS,low polyreactivity

row,Sequence,polyreactivity (PSR sort gate)
1,QVQLVESGGGLVQAGGSLRLSCAASGFIFERYTMGWYRQAPGKERELVAAISDSGGSTYYADSVKGRFTISRDNAKNTVYLQMNSLKPEDTAVYYCATTQYTTYGRRYYWGQGTQVTVSS,high polyreactivity
2,QVQLVESGGGLVQAGGSLRLSCAASGFIFFAYAMGWYRQAPGKERELVAAISRTGGSTYYADSVKGRFTISRDNAKNTVYLQMNSLKPEDTAVYYCARPKYAWSYSRGNYWGQGTQVTVSS,high polyreactivity
3,QVQLVESGGGLVQAGGSLRLSCAASGFIFFEYAMGWYRQAPGKERELVAAISWSDDTTYYADSVKGRFTISRDNAKNTVYLQMNSLKPEDTAVYYCAAEKVSGQGEMDYWGQGTQVTVSS,low polyreactivity
4,QVQLVESGGGLVQAGGSLRLSCAASGFIFFFYAMGWYSQAPGKERELVASISWNGGSTYYADSVKGRFTISRDNAKNTVYLQMNSLKPEDTAVYYCNKDPVSLWYYSKDYTYDYWGQGTQVTVSS,low polyreactivity
5,QVQLVESGGGLVQAGGSLRLSCAASGFIFFGEYVMGWYRQAPGKEREFVAAISRSSATTYYADSVKGRFTISRDTAKNTVYLQMNSLKPEDTAVYYCNAGDLGRRWGMDYWGQGTQVTVSS,low polyreactivity
6,QVQLVESGGGLVQAGGSLRLSCAASGFIFFGEYVMGWYRQAPGKEREFVAAITDSDGSTYYADSVKGRFTISRDNAKNTVYLQMTSLKPEDTAVYYCAAERVCSDMDYWGQGTQVTVSS,low polyreactivity
7,QVQLVESGGGLVQAGGSLRLSCAASGFIFFLYAMGWYRQAPGKERELVARISGGGDSTSYADSVKGRFTISRDNAKNTVYLQMNSLKPEDTAVYYCAADVWGSGGELGYWGQGTQVTVSS,low polyreactivity
8,QVQLVESGGGLVQAGGSLRLSCAASGFIFFRYAMGWYRQAPGKERELVAAISRTGGRTYYADSVKGRFTISRDNAKNTVYLQMNSLKPEDTAVYYCAARRHSRVKYRDYWGQGTQVTVSS,high polyreactivity
9,QVQLVESGGGLVQAGGSLRLSCAASGFIFFYAMGWYRQAPGKERELVASIDSGVSTDYADSVKGRFTISRDNAKNTVYLQMNSLTPEDTAVYYCAADPWSSLNYDYWGQGTQVTVSS,low polyreactivity
10,QVQLVESGGGLVQAGGSLRLSCAASGFIFFYYAMGWYRQAHGKERELVAAISASGGSTYYADSVKGRFTISRDNAKNTVYLQMNSLKPEDTAVYYCATDPISRARLYGQRDYWGQGTQVTVSS,high polyreactivity
11,QVQLVESGGGLVQAGGSLRLSCAASGFIFGDNAMGWYRQAPGKERELVAAINSSGGRTYYADSVKGRFTISRDNAKNTVYLQMNSLKPEDTAVYYCNAAYGIASYGSSYYWGQGTQVTVSS,high polyreactivity
12,QVQLVESGGGLVQAGGSLRLSCAASGFIFGDYAMGWYRQAPGKERELVAAISRSGGRTYYADSVKGRFTISRDNAKNTVYLQMNSLKPEDTAVYYCAKSSLNIYDYWGQGTQVTVSS,high polyreactivity
13,QVQLVESGGGLVQAGGSLRLSCAASGFIFGGNAMGWFRQAPGKERELVAAIRSGGSTYYADSVKGRFTISRDNAKNTVYLQMNSLKPEDTAVYYCAAELYDVYDLDYWGQGTQVTVSS,low polyreactivity
14,QVQLVESGGGLVQAGGSLRLSCAASGFIFGGNAMGWYRQAPGNERELVARISSGGITSYADSVKGRFTISRDNAKNSVYLQMYSLKPEDTAVYYCAADDYVSTQDDSYYEYDYWGQGTQVTVSS,low polyreactivity
15,QVQLVESGGGLVQAGGSLRLSCAASGFIFGGYAMGWYRQAPGKERELVAAISSGGGTTYADSVKGRFTISRDNAKYTVYLQMNSLKPEDTAVYYGAAVTRDYRNDRRRQRYYYWGQGTQVTVSS,high polyreactivity
16,QVQLVESGGGLVQAGGSLRLSCAASGFIFGGYAMGWYRQAPGKERELVAAITWSGGNTYYADSVKGRFTISRDNAKNTVYLQMNSLKPEDTAVYYCAADYWTKYGYWGLGTQVTVSS,low polyreactivity
